From patent US20190307868A1 (published 2019) come the findings set out here.

The assay addresses HLA-B08:01 (human). The experiment in a line: peptide-MHC-I complex dissociation half-life, 125I-b2m, 37 C. How it is done: Briefly, synthetic genes encoding biotinylated MHC-I heavy and light chains are expressed in E. coli and purified from inclusion bodies using standard methods. The light chain (β2m) is radio-labeled with iodine (¹²⁵I), and combined with the purified MHC-I heavy chain and peptide of interest at 18° C. to initiate pMHC-I complex formation. These reactions are carried out in streptavidin coated microplates to bind th biotinylated MHC-I heavy chains to the surface and allow measurement of radiolabeled light chain to monitor complex formation. Dissociation is initiated by addition of higher concentrations of unlabeled light-chain and incubation at 37° C. Stability is defined as the length of time in hours it takes for half of the complexes to dissociate, as measured by scintillation counts

B1: QVYRRKHQEL (EML4:ALK) (peptide)
peptide: QVYRRKHQEL
For the molecule B1, the “Stability (T1/2 (h))” value came to 0 h.
